Laboratory results published in paper PMC5922973, “Topoisomerase VI senses and exploits both DNA crossings and bends to facilitate strand passage” (eLife, 2018).
Positions count from the first letter of the chain named.

T1: topo VI holoenzyme WT (Methanosarcina mazei, UniProt Q8PUB7;Q8PUB8 1-369;1-621)
T1 sequence 1: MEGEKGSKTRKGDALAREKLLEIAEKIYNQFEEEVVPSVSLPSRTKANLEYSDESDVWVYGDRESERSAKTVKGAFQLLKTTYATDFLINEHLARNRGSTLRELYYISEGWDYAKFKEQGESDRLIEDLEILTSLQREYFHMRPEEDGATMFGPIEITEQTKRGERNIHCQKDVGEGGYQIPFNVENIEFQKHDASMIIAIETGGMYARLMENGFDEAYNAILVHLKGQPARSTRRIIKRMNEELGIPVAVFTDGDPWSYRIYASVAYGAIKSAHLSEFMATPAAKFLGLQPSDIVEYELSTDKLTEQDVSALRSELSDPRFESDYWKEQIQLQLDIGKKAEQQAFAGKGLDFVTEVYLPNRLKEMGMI
T1 sequence 2: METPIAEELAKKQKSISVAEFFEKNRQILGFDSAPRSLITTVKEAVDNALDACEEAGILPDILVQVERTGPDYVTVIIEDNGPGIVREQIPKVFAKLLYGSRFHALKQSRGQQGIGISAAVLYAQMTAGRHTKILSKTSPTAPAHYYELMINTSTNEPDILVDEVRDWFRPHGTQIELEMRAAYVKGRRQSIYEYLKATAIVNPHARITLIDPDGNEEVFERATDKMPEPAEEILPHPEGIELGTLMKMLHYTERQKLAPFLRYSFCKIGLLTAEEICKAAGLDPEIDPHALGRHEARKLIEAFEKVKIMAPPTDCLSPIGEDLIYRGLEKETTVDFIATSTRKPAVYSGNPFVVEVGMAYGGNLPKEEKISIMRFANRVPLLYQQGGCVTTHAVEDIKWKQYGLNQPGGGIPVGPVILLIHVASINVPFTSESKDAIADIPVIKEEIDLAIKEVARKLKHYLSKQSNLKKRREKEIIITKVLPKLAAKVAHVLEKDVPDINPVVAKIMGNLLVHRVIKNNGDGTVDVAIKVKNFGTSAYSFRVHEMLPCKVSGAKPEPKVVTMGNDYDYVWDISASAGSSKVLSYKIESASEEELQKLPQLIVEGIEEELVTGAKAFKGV

T2: topo VI H2TH-EEE (Methanosarcina mazei, UniProt Q8PUB7;Q8PUB8 1-369;1-621, R263E;K268E;K308E)
T2 sequence 1: T1 sequence 1
T2 sequence 2: T1 sequence 2 with R263E, K268E, K308E

T3: topo VI H2TH-AAA (Methanosarcina mazei, UniProt Q8PUB7;Q8PUB8 1-369;1-621, R263A;K268A;K308A)
T3 sequence 1: T1 sequence 1
T3 sequence 2: T1 sequence 2 with R263A, K268A, K308A

B1: 70 bp duplex (dsDNA)
DNA 1: CCAAATGCTTCAATAATATTGAAAAAGGAAGAGTATGAGTATTCAACATTTCCGTGTCGCCCTTATTCCC
DNA 2: GGGAATAAGGGCGACACGGAAATGTTGAATACTCATACTCTTCCTTTTTCAATATTATTGAAGCATTTGG
B2: 40 bp duplex (dsDNA)
DNA 1: CTATTGAAAAAGGAAGAGTATGAGTATTCAACATTTCCGC
DNA 2: GCGGAAATGTTGAATACTCATACTCTTCCTTTTTCAATAG
B3: 30 bp duplex (dsDNA)
DNA 1: CAAAAAGGAAGAGTATGAGTATTCAACATC
DNA 2: GATGTTGAATACTCATACTCTTCCTTTTTG
B4: 16 x 20 bp stacked junction (structured_DNA)
DNA 1: CGAATACTCAGCTCAACCGAAAGGTTGAGCCTTCGCTCGAAAGAGCGAAGTACTCTTCCG
DNA 2: CGGAAGAGTATGAGTATTCG
B5: 60 bp duplex (dsDNA)
DNA 1: CGCTTCAATAATATTGAAAAAGGAAGAGTATGAGTATTCAACATTTCCGTGTCGCCCTTC
DNA 2: GAAGGGCGACACGGAAATGTTGAATACTCATACTCTTCCTTTTTCAATATTATTGAAGCG
B6: 20 bp duplex (dsDNA)
DNA 1: CGGAAGAGTATGAGTATTCG
DNA 2: CGAATACTCATACTCTTCCG

Legend:
Assay in all cases: fluorescence anisotropy; Fluorescence anisotropy, 20 nM FAM-labelled DNA, topo VI 0 and 3.9-4000 nM, no nucleotide; buffer, salt, pH and temperature not given in supplied text
Conditions in all cases: protein: recombinant, tags: N-terminal His6-TEV on Top6B, removed, chain copies: 2;2
[1] = molecular target: T1, topo VI holoenzyme WT
[2] = molecular target: T2, topo VI H2TH-EEE
[3] = molecular target: T3, topo VI H2TH-AAA
[4] = label: 5'-FAM strand 2, four-way Holliday junction, stacked-X, two GAAA-capped arms

Binder | Kd ([1]; label: 5'-FAM strand 1, blunt) [nM] | apparent K (half saturation) ([2]; label: 5'-FAM strand 1, blunt) [nM] | Kd ([3]; label: 5'-FAM strand 1, blunt) [nM] | Kd [1, 4] [nM] | Kd [2, 4] [nM] | Kd [3, 4] [nM] | Kd ([2]; label: 5'-FAM strand 1, blunt) [nM]
B1 | 62 ± 4 | 103 ± 3 | 180 ± 12 |  |  |  | 
B2 | 49 ± 3 |  | 58 ± 3 |  |  |  | 
B3 | 84 ± 6 |  | 94 ± 4 |  |  |  | 
B4 |  |  |  | 122 ± 4 | 90 ± 4 | 181 ± 8 | 
B5 | 38 ± 2 | 109 ± 3 | 167 ± 9 |  |  |  | 
B6 | 427 ± 16 |  | 505 ± 22 |  |  |  | 222 ± 11
